For assay [1], the target named is recombinant murine IL-12 (mouse) (UniProt P43431). Nature of the assay: biomolecular interaction assay, C17.15 captured via goat anti-rat IgG, murine IL-12 in solution.
For assay [2] the target is unchanged. Nature of the assay: cell-based or functional assay.
Assay [3] has the same target. Nature of the assay: receptor binding assay, 125I-murine IL-12 on 2D6 cells.
In assay [4] the target is recombinant rhesus IL-12 (rhesus monkey) (UniProt P48091). As to the kind of experiment: cell-based or functional assay.
recombinant rhesus IL-12 (rhesus monkey), sequence (P48091 23-219, chain 1 of 2): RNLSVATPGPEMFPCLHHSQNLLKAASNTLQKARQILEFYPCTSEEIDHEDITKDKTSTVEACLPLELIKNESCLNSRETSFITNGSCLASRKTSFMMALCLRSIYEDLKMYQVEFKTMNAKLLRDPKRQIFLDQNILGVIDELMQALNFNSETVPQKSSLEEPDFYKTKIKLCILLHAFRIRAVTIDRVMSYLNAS
recombinant rhesus IL-12 (rhesus monkey), sequence (P48095 23-328, chain 2 of 2, further chain): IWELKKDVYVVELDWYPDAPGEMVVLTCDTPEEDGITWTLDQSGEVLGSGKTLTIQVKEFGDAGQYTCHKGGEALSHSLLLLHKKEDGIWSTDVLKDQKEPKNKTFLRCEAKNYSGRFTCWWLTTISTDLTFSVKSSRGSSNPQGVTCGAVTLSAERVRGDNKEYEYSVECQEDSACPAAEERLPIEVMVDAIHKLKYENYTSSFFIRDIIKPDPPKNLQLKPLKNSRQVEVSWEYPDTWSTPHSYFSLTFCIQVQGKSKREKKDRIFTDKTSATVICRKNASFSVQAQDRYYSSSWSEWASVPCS
In assay [5] the target is baboon IL-12 (PBMC supernatant) (baboon). Nature of the assay: cell-based or functional assay.
The target in assay [6] is recombinant human IL-12 (rhIL-12) (human) (UniProt P29459). Nature of the assay: cell-based or functional assay.
recombinant human IL-12 (rhIL-12) (human), sequence (P29459 23-219, chain 1 of 2): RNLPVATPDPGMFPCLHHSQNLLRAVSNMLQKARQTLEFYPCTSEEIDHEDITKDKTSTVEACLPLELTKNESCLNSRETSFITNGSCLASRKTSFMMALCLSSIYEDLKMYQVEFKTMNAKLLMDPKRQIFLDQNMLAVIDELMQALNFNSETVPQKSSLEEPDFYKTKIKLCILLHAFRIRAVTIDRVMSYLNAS
recombinant human IL-12 (rhIL-12) (human), sequence (P29460 23-328, chain 2 of 2, further chain): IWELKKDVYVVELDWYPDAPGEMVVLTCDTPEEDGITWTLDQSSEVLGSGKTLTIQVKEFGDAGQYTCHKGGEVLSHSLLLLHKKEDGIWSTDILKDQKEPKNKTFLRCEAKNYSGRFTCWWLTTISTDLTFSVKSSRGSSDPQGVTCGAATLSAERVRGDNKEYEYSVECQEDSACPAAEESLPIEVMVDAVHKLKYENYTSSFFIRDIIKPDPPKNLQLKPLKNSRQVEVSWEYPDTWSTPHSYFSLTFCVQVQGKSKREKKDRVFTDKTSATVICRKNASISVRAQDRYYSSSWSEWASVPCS
The target of assay [7] is cynomolgus IL-12 (PBMC supernatant) (cynomolgus monkey). As to the kind of experiment: cell-based or functional assay.

recombinant murine IL-12 (mouse), sequence (P43431 23-215, chain 1 of 2): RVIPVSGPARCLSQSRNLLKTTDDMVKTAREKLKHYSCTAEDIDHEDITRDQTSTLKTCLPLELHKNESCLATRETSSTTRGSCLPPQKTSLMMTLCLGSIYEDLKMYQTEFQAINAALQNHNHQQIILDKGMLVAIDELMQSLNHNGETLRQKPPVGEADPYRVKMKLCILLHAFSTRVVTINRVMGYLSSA
recombinant murine IL-12 (mouse), sequence (P43432 23-335, chain 2 of 2, further chain): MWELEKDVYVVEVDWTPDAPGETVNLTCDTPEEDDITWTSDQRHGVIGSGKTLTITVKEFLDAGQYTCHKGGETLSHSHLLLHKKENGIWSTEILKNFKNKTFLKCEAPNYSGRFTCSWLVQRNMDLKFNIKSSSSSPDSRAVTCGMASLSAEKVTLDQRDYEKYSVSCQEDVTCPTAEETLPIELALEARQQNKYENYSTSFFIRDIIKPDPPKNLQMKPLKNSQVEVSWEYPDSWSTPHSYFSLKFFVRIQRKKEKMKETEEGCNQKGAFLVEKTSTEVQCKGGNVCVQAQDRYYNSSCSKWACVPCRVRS

By Kd is commonly meant the free concentration of one partner at which half of the binding sites on the other are occupied at equilibrium, for simple one-to-one binding. For orientation: koff means the rate constant with which the complex falls apart. A word on the kon: it is the second-order rate constant of association. For orientation: IC50 means the concentration needed to halve the response being measured. C17.15 (antibody): in assay [1], the Kd was 0.48 nM, the off-rate (koff) stood at 0.000184 s⁻¹ and the kon was found to be 380000 M⁻¹ s⁻¹. In assay [2], the IC50 (M), bioassay, Mouse IL-12 Purified was determined as 3e-11 M and the PHA blast IC50 came out at 0.014 nM. The IC50 in assay [3] worked out at 0.15 nM.
As for C8.6.2 (antibody), the IC50 (M), bioassay, Rhesus IL-12 Purified in assay [4] turned out to be 1e-10 M. In assay [5], this substance gave an IC50 (M), bioassay, Baboon IL-12 PBMC sup of 2e-10 M. In addition, the IC50 (M), bioassay, Human IL-12 Purified in assay [6] was 5e-11 M. In assay [7], the IC50 (M), bioassay, Cyno IL-12 PBMC sup came out at 1.2e-10 M.

The values are drawn from patent US20150037348A1.
